# What was measured:
# [1] = target: HLA-A*30:02; assay: IEDB peptide-MHC binding, purified MHC/competitive/radioactivity; filed as Kd, often an IC50 or EC50 that approximates it; ≥ and ≤ were set here for values at or beyond the usual limits of such assays
# [2] = target: HLA-A*30:01; assay: as above
# [3] = target: HLA-A*32:01; assay: as above
# [4] = target: HLA-A*01:01; assay: as above
# [5] = target: HLA-A*29:02; assay: as above
# [6] = target: HLA-A*26:01; assay: as above
# [7] = target: HLA-A*68:02; assay: as above
# [8] = target: HLA-B*15:01; assay: as above
# [9] = target: HLA-B*51:01; assay: as above
# [10] = target: HLA-B*53:01; assay: as above
# [11] = target: HLA-A*02:06; assay: as above
# [12] = target: HLA-A*02:03; assay: as above
# [13] = target: HLA-A*02:02; assay: as above
# [14] = target: HLA-A*24:02; assay: as above; conditions: source organism: Mammarenavirus guanaritoense
# [15] = target: HLA-A*23:01; assay: as above; conditions: source organism: Mammarenavirus guanaritoense
# [16] = target: HLA-B*58:01; assay: IEDB peptide-MHC binding, purified MHC/direct/fluorescence; filed as Kd, often an IC50 or EC50 that approximates it; ≥ and ≤ were set here for values at or beyond the usual limits of such assays
# [17] = target: HLA-B*57:01; assay: as above
# [18] = target: HLA-B*07:02; assay: as above
# [19] = target: HLA-B*15:01; assay: as above
# [20] = target: HLA-A*68:01; assay: IEDB peptide-MHC binding, purified MHC/competitive/radioactivity; filed as Kd, often an IC50 or EC50 that approximates it; ≥ and ≤ were set here for values at or beyond the usual limits of such assays; conditions: source organism: Vaccinia virus WR
# [21] = target: HLA-A*33:01; assay: as above; conditions: source organism: Vaccinia virus WR
# [22] = target: HLA-A*11:01; assay: as above; conditions: source organism: Vaccinia virus WR
# [23] = target: HLA-A*03:01; assay: as above; conditions: source organism: Vaccinia virus WR
# [24] = target: HLA-A*31:01; assay: as above; conditions: source organism: Vaccinia virus WR
# [25] = target: HLA-A*69:01; assay: IEDB peptide-MHC binding, purified MHC/direct/fluorescence; filed as Kd, often an IC50 or EC50 that approximates it; ≥ and ≤ were set here for values at or beyond the usual limits of such assays; conditions: source organism: SARS-CoV1
# [26] = target: HLA-A*02:01; assay: as above; conditions: source organism: SARS-CoV1
# [27] = target: HLA-A*03:01; assay: as above; conditions: source organism: SARS-CoV1
# [28] = target: HLA-A*01:01; assay: as above; conditions: source organism: SARS-CoV1
# [29] = target: HLA-A*31:01; assay: as above; conditions: source organism: SARS-CoV1
# [30] = target: HLA-B*08:01; assay: as above
# [31] = source organism: Mammarenavirus lassaense
# [32] = source organism: Vaccinia virus WR
# [33] = source organism: Vaccinia virus Copenhagen
# [34] = source organism: Dengue virus 2 Jamaica/1409/1983
# [35] = source organism: Dengue virus 1 Brazil/97-11/1997
# [36] = source organism: Dengue virus 3 Martinique/1243/1999
# [37] = source organism: Dengue virus 4 Dominica/814669/1981
# [38] = source organism: Dengue virus 1 Singapore/S275/1990
# [39] = source organism: Dengue virus 4 Philippines/H241/1956
# [40] = source organism: Trypanosoma cruzi
# [41] = source organism: Mammarenavirus guanaritoense
# [42] = source organism: Dengue virus 2 Peru/IQT2913/1996
# [43] = source organism: Toxoplasma gondii
# [44] = source organism: Lassa virus Josiah
# [45] = source organism: Lymphocytic choriomeningitis virus (strain Armstrong) (clone 53b)
# [46] = source organism: Brucella abortus 2308
# [47] = source organism: SARS coronavirus Tor2
# [48] = source organism: Mammarenavirus brazilense
sequence,measurement,setting,value
ASPILRFLY,Kd,[1]; [31],97.4 nM
same,Kd,[2]; [31],≥ 78100 nM
same,Kd,[3]; [31],1100 nM
same,Kd,[4]; [31],331 nM
same,Kd,[5]; [31],91.7 nM
same,Kd,[6]; [31],9660 nM
ATFTVNIFK,Kd,[2]; [32],3.13 nM
AVKDVTITK,Kd,[2]; [32],2.16 nM
AVSFSSPIS,Kd,[2]; [32],1310 nM
CARISSRES,Kd,[2]; [33],586 nM
CTILAVVSV,Kd,[7]; source organism: Dengue virus 2 16681-PDK53,54.1 nM
EAIMAVGMV,Kd,[7]; [34],1.79 nM
same,Kd,[6]; [34],43.9 nM
ELRRQVDQL,Kd,[7]; source organism: Homo sapiens,1210 nM
EMILSTSSM,Kd,[8]; [33],1.47 nM
EPEVANLDI,Kd,[9]; [35],≥ 44500 nM
same,Kd,[10]; [35],7230 nM
EPPFGESYI,Kd,[9]; [35],13800 nM
ETYQLWTALI,Kd,[7]; [36],2.28 nM
same,Kd,[6]; [36],114 nM
EVLTLATGPI,Kd,[7]; [37],100 nM
same,Kd,[6]; [37],10400 nM
FINSTCYVF,Kd,[8]; [32],4.34 nM
FQSHQLWATL,Kd,[3]; [38],1960 nM
same,Kd,[8]; [38],30.4 nM
FSGKGPLRMV,Kd,[9]; [39],≥ 38000 nM
FTMTHRRPTI,Kd,[9]; [36],≥ 20400 nM
same,Kd,[7]; [36],114 nM
same,Kd,[11]; [36],647 nM
FVNYNFTLV,Kd,[7]; [40],0.336 nM
same,Kd,[12]; [40],0.759 nM
same,Kd,[11]; [40],0.0031 nM
same,Kd,[13]; [40],10.4 nM
GEKSRCYSLY,Kd,[1]; [41],751 nM
same,Kd,[2]; [41],6850 nM
same,Kd,[3]; [41],≥ 69900 nM
same,Kd,[14],≥ 70300 nM
same,Kd,[4]; [41],≥ 42300 nM
same,Kd,[5]; [41],≥ 10000 nM
same,Kd,[6]; [41],≥ 69700 nM
same,Kd,[15],≥ 44600 nM
GLLPSLLLLL,Kd,[7]; [40],≥ 33000 nM
same,Kd,[12]; [40],1.83 nM
same,Kd,[11]; [40],7.28 nM
same,Kd,[13]; [40],3.06 nM
GQGPMKLVM,Kd,[8]; [35],11.4 nM
GVVTRSGAYV,Kd,[7]; [34],333 nM
HTHLSNQNL,Kd,[2]; [32],5.78 nM
IMKIGIGVL,Kd,[8]; source organism: Dengue virus 3 Singapore/8120/1995,123 nM
KGFYASPSV,Kd,[2]; [32],2.68 nM
KLEGDSTDL,Kd,[7]; source organism: Homo sapiens,2050 nM
KNRLNALGK,Kd,[2]; [42],142 nM
KSKQLKSFL,Kd,[2]; [32],13.2 nM
KTKTDFGFY,Kd,[1]; [39],1.56 nM
same,Kd,[2]; [39],2.89 nM
same,Kd,[4]; [39],6280 nM
KTSGRGSCM,Kd,[16]; [43],6000 nM
same,Kd,[17]; [43],≥ 20000 nM
KVVRVQRPAK,Kd,[2]; [35],6.11 nM
KVYIGYCMA,Kd,[2]; [32],2.6 nM
LACYRFVKF,Kd,[8]; [32],146 nM
LAGVSLLPV,Kd,[9]; [36],1910 nM
LIALSVLAV,Kd,[7]; [44],323 nM
same,Kd,[12]; [44],2.63 nM
same,Kd,[11]; [44],336 nM
same,Kd,[13]; [44],117 nM
LLEGEEERL,Kd,[7]; source organism: Homo sapiens,≥ 136000 nM
same,Kd,[11]; source organism: Homo sapiens,≥ 20500 nM
LLGLWGLATA,Kd,[7]; [40],407 nM
same,Kd,[12]; [40],1.39 nM
same,Kd,[11]; [40],57.9 nM
same,Kd,[13]; [40],1.69 nM
LLLGVGLAM,Kd,[8]; [36],31.7 nM
LMNNLDTLF,Kd,[8]; [32],86.4 nM
LPHQPLATY,Kd,[18]; source organism: Homo sapiens,5980 nM
same,Kd,[19]; source organism: Homo sapiens,2350 nM
LPVWLAYKV,Kd,[9]; [42],515 nM
same,Kd,[10]; [42],157 nM
LSANLFESQ,Kd,[8]; [32],45 nM
LSIFFIVVA,Kd,[8]; [32],82.3 nM
LTISFFLIM,Kd,[3]; [32],11600 nM
same,Kd,[8]; [32],7690 nM
MENVYISSY,Kd,[8]; [32],1.97 nM
MSPGYVLGV,Kd,[7]; [37],99.6 nM
MTAGIFLFFM,Kd,[7]; [39],10.4 nM
same,Kd,[6]; [39],15.9 nM
MYKKAEASF,Kd,[8]; [32],69.3 nM
NARLMRALK,Kd,[2]; [32],2.22 nM
NLQKESRACL,Kd,[7]; source organism: Homo sapiens,19700 nM
NMIKMFSQI,Kd,[8]; [32],354 nM
PLNDNIATLL,Kd,[7]; source organism: Homo sapiens,7440 nM
RAILGCAQA,Kd,[2]; [32],2370 nM
RFRTVLISK,Kd,[2]; [33],4.59 nM
RQLQKIERW,Kd,[17]; source organism: Yellow fever virus,405 nM
RSANTSAPF,Kd,[8]; [32],0.681 nM
RTKPASAPI,Kd,[2]; [32],0.114 nM
RTRYDTFKV,Kd,[2]; [32],0.197 nM
SGIGTFLHY,Kd,[8]; [32],23.3 nM
SLNQTVHSL,Kd,[7]; [45],16100 nM
same,Kd,[12]; [45],2.4 nM
same,Kd,[11]; [45],≥ 28100 nM
same,Kd,[13]; [45],1.9 nM
SSVNVSLTAI,Kd,[7]; [34],184 nM
TTKDYFSFK,Kd,[20],1.07 nM
same,Kd,[2]; [32],1.23 nM
same,Kd,[21],17.6 nM
same,Kd,[22],0.861 nM
same,Kd,[23],18.1 nM
same,Kd,[24],1.33 nM
TTTESRCPTQ,Kd,[2]; [34],≥ 28700 nM
TVFFVLMML,Kd,[7]; [39],36 nM
VARGARFFL,Kd,[16]; [46],≥ 20000 nM
same,Kd,[17]; [46],509 nM
VLWAHGFEL,Kd,[12]; [47],33.8 nM
same,Kd,[11]; [47],20.3 nM
same,Kd,[13]; [47],2.4 nM
same,Kd,[18]; source organism: SARS-CoV1,6180 nM
same,Kd,[25],65.5 nM
same,Kd,[26],72.4 nM
same,Kd,[16]; source organism: SARS-CoV1,1860 nM
same,Kd,[27],2330 nM
same,Kd,[28],4700 nM
same,Kd,[29],305 nM
same,Kd,[30]; source organism: SARS-CoV1,3200 nM
same,Kd,[19]; source organism: SARS-CoV1,617 nM
VSRLEHQMW,Kd,[17]; source organism: West Nile virus,90.5 nM
VTPSMTMRCV,Kd,[7]; [36],193 nM
WPLSKMDIGV,Kd,[9]; [42],2670 nM
YLRRRIGMI,Kd,[30]; source organism: Coxiella burnetii Q321,6 nM
YNISRKIVY,Kd,[1]; [48],3410 nM
same,Kd,[2]; [48],6600 nM
same,Kd,[3]; [48],≥ 36200 nM
same,Kd,[4]; [48],1080 nM
same,Kd,[5]; [48],2350 nM
same,Kd,[6]; [48],2890 nM
YSDPKRFFL,Kd,[1]; [41],85.9 nM
same,Kd,[2]; [41],6160 nM
same,Kd,[3]; [41],≥ 77800 nM
same,Kd,[4]; [41],7.32 nM
same,Kd,[5]; [41],≥ 21300 nM
same,Kd,[6]; [41],≥ 77900 nM
YSKLTSMHF,Kd,[8]; [32],0.574 nM

# Source: the Immune Epitope Database (IEDB)
